Assay results taken from patent US6395531.

Test system: MlyI restriction endonuclease (Micrococcus lylae)
Experiment: cleavage_in_vitro
Conditions: recombinant MlyI yield approximately 50,000 units per gram of cells; assay substrate not stated

plasmid DNA with MlyI sites (sequence not printed)
activity (units/g cells): 50000
